Key:
[1] = molecular target: PulD (Klebsiella pneumoniae HS11286) (UniProt P15644); assay: cryo-EM structure; outer membrane complex of the co-expressed and co-purified Pul_CDELMNS complex on thin carbon film; focused refinement, C15 symmetry, 4.3 Å overall; PulC HR domain (7-8 Å) and PulS (~7 Å) as rigid-body fitted homology models; top views from a purification without glutaraldehyde
[2] = molecular target: T1, PulE N1E domain (aa 1-108) with C-terminal StrepII tag (Klebsiella pneumoniae HS11286, UniProt A0A0H3GRZ5 1-108); assay: SDS-PAGE densitometry of the co-purified complex; Pul_(E-N1E/Lcyto) complex, two independent purifications, duplicate gels, Coomassie Blue R250 imaged at 680 nm; details: both partners purified
T1 construct: N1E domain of PulE, Klebsiella pneumoniae HS11286, aa 1-108; source: E. coli, co-expressed with Pul_(Lcyto) (pASK3c); not shown: StrepII, C-terminal, kept
T1 sequence: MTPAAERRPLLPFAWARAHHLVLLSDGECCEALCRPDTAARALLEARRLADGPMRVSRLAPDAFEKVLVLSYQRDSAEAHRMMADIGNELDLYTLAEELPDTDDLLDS

[3] = molecular target: T2, PulE with C-terminal StrepII tag (Klebsiella pneumoniae HS11286, UniProt A0A0H3GRZ5 1-497); assay: SDS-PAGE densitometry of the co-purified complex; Pul_CDELMNS co-expressed and co-purified without glutaraldehyde, phenol extracted; fluorescent emission of Coomassie R250 and Sypro Ruby stained gels; six independent purifications; ratios standardised around PulE; details: both partners purified
T2 construct: PulE ATPase of the Klebsiella pneumoniae HS11286 type II secretion system; N1E, N2E and CTE domains; also called PulE ATPase; GspE; source: E. coli C43 (DE3) with pspA knockout, co-expressed (from the pul operon in pASK3c, or full-length pulE alone in pASK3c); DDM-solubilised membranes; purified as part of a complex (StrepTrap, Flag resin); not shown: StrepII, C-terminal, kept
T2 sequence: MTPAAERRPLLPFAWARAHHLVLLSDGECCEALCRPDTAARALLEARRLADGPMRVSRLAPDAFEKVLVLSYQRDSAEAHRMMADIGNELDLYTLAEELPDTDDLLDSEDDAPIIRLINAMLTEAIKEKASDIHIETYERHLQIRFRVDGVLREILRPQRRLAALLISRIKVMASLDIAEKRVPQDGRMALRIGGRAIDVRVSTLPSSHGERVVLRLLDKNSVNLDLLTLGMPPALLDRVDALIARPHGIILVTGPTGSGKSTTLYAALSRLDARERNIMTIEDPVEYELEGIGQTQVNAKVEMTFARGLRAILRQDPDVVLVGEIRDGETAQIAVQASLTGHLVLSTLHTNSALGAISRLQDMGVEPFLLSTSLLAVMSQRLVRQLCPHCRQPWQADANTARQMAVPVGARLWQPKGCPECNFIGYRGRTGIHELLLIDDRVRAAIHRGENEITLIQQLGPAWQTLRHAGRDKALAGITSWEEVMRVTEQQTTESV

PulS with C-terminal Flag tag (from UniProt P20440 18-125) (natural protein)
stoichiometry N [1]: 1

PulD (from UniProt P15644 28-660) (natural protein)
stoichiometry N [1]: 15

B1: PulL cytoplasmic domain (aa 1-235) with C-terminal Flag tag (domain or fragment)
chain: MNKINASPQAMLIVRLAAAQAPLHWQLFAPGEPHHEASGRWPTDDASPFPALAEQYPAWVLIPASDCAFHSLNLPAGLRKPPLQVAPFLLEEQLADDVEATHFALLHRQQAQCEIVAVQRQKMRDWLARCESLSLQPLALTPDVLALPWQPPAWSAVQVDEQWLIRHQPWGGMAAENVWLTELLQSEAEEHVIDSYSPPPAAPGVWREQPAQTLLTLAARHPAAQKLSLLQGEFA
notes: cytoplasmic domain of PulL, Klebsiella pneumoniae HS11286, aa 1-235; source: E. coli, co-expressed (pCDF-duet); not shown: Flag, C-terminal, kept
stoichiometry N [2]: 1

B2: PulC (natural protein)
chain: MPVSVMRLTNINKGIIKLLPQIVTLIILITAIPQLAKLTWRVVFPVSPEDISALPLTMPPAADPELKNVRPAFTLFGLAVKNSPTPTDAASLNQVPVSSLKLRLAGLLASSNPARSIAIIEKGNQQVSLSTGDPLPGYDARIAAILPDRIIVNYQGRKEAILLFNDSRAPSPPPTAAGNPPLVKRLREQPQNILTYLSISPVLSGDKLLGYRLNPGKDASLFRQSGLQANDLAIALNGIDLRDQEQAQQALQNLADMTEITLTVEREGQRHDIAFALGDE
notes: whole gene as part of the cloned operon pulC to pulO; has an N-terminus in the inner membrane, an HR domain and a PDZ domain; Only the HR domain (homology model) is fitted in the outer membrane complex map; also called GspC; source: E. coli C43 (DE3) with pspA knockout, co-expressed from the pul operon (pASK3c); DDM-solubilised membranes; purified as part of the complex (StrepTrap, Flag resin)
stoichiometry N [3]: 2.13 relative to PulE

B3: PulM (natural protein)
chain: MANLLIWWRQRTPSEQRLLLGLTGLLAACAFWYGLWQPWRAREAQWRQTLVKEQASLRWMTEQAPRLQQLSQQPAPAAKEALTALVMREAASHGLTVIRLQPQGKRLQITLQPCAFQALIDWLDAPAMRGVNAISLSVTGQPSRPGWVTVNHLLLERDDEG
notes: PulM of the Klebsiella pneumoniae HS11286 type II secretion system; whole gene as part of the cloned operon; also called GspM; source: DDM-solubilised membranes; purified as part of a complex
stoichiometry N [3]: 0.99 relative to PulE

B4: PulN (natural protein)
chain: MKANWIAGGLLLVLYLLWLTATAPARLLAPMLPPGVQVGQFSGSVWRGAAQPVYWHGERLERLAWSLTLAGWQVSLSDPRGVMGQARLWGLRDLRLQEGRLTAPASLLSRWLMSTMPVKAAGEVTFSLTEGRFSDGRCRHIIAGGAQWRQARLHSPVGSLELAQVNGTFRCTVDGAVALTLRQDSHQLSLSGQGTLSPDGRYLFRGTLQPRQGMPPLLALLVTRPTANNAPGPTPWQLQGKWLPQEQK
notes: PulN of the Klebsiella pneumoniae HS11286 type II secretion system; whole gene as part of the cloned operon pulC to pulO; source: E. coli C43 (DE3) with pspA knockout, co-expressed from the pul operon (pASK3c); DDM-solubilised membranes; purified as part of the complex (StrepTrap, Flag resin)
stoichiometry N [3]: 0.95 relative to PulE

B5: PulL (natural protein)
chain: MNKINASPQAMLIVRLAAAQAPLHWQLFAPGEPHHEASGRWPTDDASPFPALAEQYPAWVLIPASDCAFHSLNLPAGLRKPPLQVAPFLLEEQLADDVEATHFALLHRQQAQCEIVAVQRQKMRDWLARCESLSLQPLALTPDVLALPWQPPAWSAVQVDEQWLIRHQPWGGMAAENVWLTELLQSEAEEHVIDSYSPPPAAPGVWREQPAQTLLTLAARHPAAQKLSLLQGEFAVRRRSAQASWRPARYAALALALLAGANSVLDHRDLARQAEAAQQASRAFYHRWFPTEKKVINPRLQMQQHLQTLTRQAQHAPLVDRLSALQNILSETPGIRLRALSWDAAGNRLQLDIAAVTSRALEQFTQRAQPRFRVRPGDMITKPDGIEGQLTLEENDG
notes: PulL of the Klebsiella pneumoniae HS11286 type II secretion system; bitopic inner membrane protein with a cytoplasmic domain (aa 1-235) and a periplasmic domain; a tag may have been present there; also called GspL; source: DDM-solubilised membranes; purified as part of a complex
stoichiometry N [3]: 0.97 relative to PulE

Source: article PMC6882859, “Core architecture of a bacterial type II secretion system” (Nature Communications, 2019)
